Target: the molecule itself
Test: crystal structure

B1: MarR family protein Rv2887 (natural protein)
chain: MGLADDAPLGYLLYRVGAVLRPEVSAALSPLGLTLPEFVCLRMLSQSPGLSSAELARHASVTPQAMNTVLRKLEDAGAVARPASVSSGRSLPATLTARGRALAKRAEAVVRAADARVLARLTAPQQREFKRMLEKLGSD
notes: also called MarR-like protein Rv2887; apo-Rv2887
- binding result: binds
